Test results published in publication PMC9992855, “Functional polyamine metabolic enzymes and pathways encoded by the virosphere” (Proceedings of the National Academy of Sciences of the …, 2023).

Substrate: CC(=O)NCCCNCCCCN
Assay: colorimetric acetate release
Assay type: biochemical, Mycoplana ramosa
Conditions: 26 °C
Text: colorimetric acetate release on M. ramosa APAH

B1: M. ramosa APAH (Mycoplana ramosa) (protein)
chain: MRVIFSEDHKLRNAKTELYGGELVPPFEAPFRAEWILAAVKEAGFDDVVAPARHGLETVLKVHDAGYLNFLETAWDRWKAAGYKGEAIATSFPVRRTSPRIPTDIEGQIGYYCNAAETAISPGTWEAALSSMASAIDGADLIAAGHKAAFSLCRPPGHHAGIDMFGGYCFINNAAVAAQRLLDKGAKKIAILDVDFHHGNGTQDIFYERGDVFFASLHGDPAEAFPHFLGYAEETGKGAGAGTTANYPMGRGTPYSVWGEALTDSLKRIAAFGAEAIVVSLGVDTFEQDPISFFKLTSPDYITMGRTIAASGVPLLVVMEGGYGVPEIGLNVANVLKGVAG
notes: 341 aa; positive comparative control enzyme
Km: 630 ± 40 µM
kcat: 5.8 ± 0.14 s⁻¹
kcat/Km: 9300 ± 450 M⁻¹ s⁻¹
